Source: US20220048967A1 (published 2022)
Numbered stars: 1 amine (or outer) side, 2 acyl side, 3 side chain; on linkers, the order of the positions; unused ones are H or OH. Square brackets hold non-standard residues; d marks the D form. Side chains are listed from the residue outwards. Ends that are not written are not given here. * marks the point of attachment. C20 diacid = O=C(O)CCCCCCCCCCCCCCCCCCC(=O)*; γGlu = O=C(O)[C@H](CCC(=O)[*:2])N[*:1]; αMeF = C[C@](N)(Cc1ccccc1)C(=O)O; AEEA = NCCOCCOCC(=O)O; Aib = CC(C)(N)C(=O)O

Experiments:
[1] = target: T1, human gastric inhibitory peptide receptor (GIPR) (human, UniProt P48546 22-466); test: cell-based or functional assay
T1 sequence (looked up): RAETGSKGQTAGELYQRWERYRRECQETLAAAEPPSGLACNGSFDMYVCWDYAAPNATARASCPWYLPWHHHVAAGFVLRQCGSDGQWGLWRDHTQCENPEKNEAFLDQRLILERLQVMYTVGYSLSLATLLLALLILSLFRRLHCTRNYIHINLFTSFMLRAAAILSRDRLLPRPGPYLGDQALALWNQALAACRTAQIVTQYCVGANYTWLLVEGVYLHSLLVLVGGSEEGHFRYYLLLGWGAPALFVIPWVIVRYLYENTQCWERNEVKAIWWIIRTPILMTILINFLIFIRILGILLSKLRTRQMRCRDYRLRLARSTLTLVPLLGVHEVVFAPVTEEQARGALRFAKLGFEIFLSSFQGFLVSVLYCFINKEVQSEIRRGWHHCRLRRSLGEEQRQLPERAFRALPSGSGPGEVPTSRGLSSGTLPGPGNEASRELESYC

[2] = target: human GLP-1 receptor (GLP-1R) (human, UniProt P43220 24-463); test: cell-based or functional assay

Binder	hGIPR cAMP EC50 ratio [1]	hGIPR cAMP Rel EC50 [1] [nM]	hGLP1R cAMP EC50 ratio [2]	hGLP1R cAMP Rel EC50 [2] [nM]
H[Aib]NGTFTSDYSILLDKK([AEEA-AEEA-γGlu-C20 diacid])AQ[Aib]AFIEYLIEGGPSSGAPPPS-NH2 (N-terminus assumed; SMILES CC[C@H](C)[C@H](NC(=O)[C@H](CC(C)C)NC(=O)[C@H](Cc1ccc(O)cc1)NC(=O)[C@H](CCC(=O)O)NC(=O)[C@@H](NC(=O)[C@H](Cc1ccccc1)NC(=O)[C@H](C)NC(=O)C(C)(C)NC(=O)[C@H](CCC(N)=O)NC(=O)[C@H](C)NC(=O)[C@H](CCCCNC(=O)COCCOCCNC(=O)COCCOCCNC(=O)CC[C@H](NC(=O)CCCCCCCCCCCCCCCCCCC(=O)O)C(=O)O)NC(=O)[C@H](CCCCN)NC(=O)[C@H](CC(=O)O)NC(=O)[C@H](CC(C)C)NC(=O)[C@H](CC(C)C)NC(=O)[C@@H](NC(=O)[C@H](CO)NC(=O)[C@H](Cc1ccc(O)cc1)NC(=O)[C@H](CC(=O)O)NC(=O)[C@H](CO)NC(=O)[C@@H](NC(=O)[C@H](Cc1ccccc1)NC(=O)[C@@H](NC(=O)CNC(=O)[C@H](CC(N)=O)NC(=O)C(C)(C)NC(=O)[C@@H](N)Cc1c[nH]cn1)[C@@H](C)O)[C@@H](C)O)[C@@H](C)CC)[C@@H](C)CC)C(=O)N[C@@H](CCC(=O)O)C(=O)NCC(=O)NCC(=O)N1CCC[C@H]1C(=O)N[C@@H](CO)C(=O)N[C@@H](CO)C(=O)NCC(=O)N[C@@H](C)C(=O)N1CCC[C@H]1C(=O)N1CCC[C@H]1C(=O)N1CCC[C@H]1C(=O)N[C@@H](CO)C(N)=O) [Example 135]	0.482	0.373	0.509	0.131
Y[Aib]EGTFTSDASILLDKK([AEEA-AEEA-γGlu-C20 diacid])AQ[Aib]AFIEYLIEAGPSSGAPPPS-NH2 (N-terminus assumed; SMILES CC[C@H](C)[C@H](NC(=O)[C@H](CC(C)C)NC(=O)[C@H](Cc1ccc(O)cc1)NC(=O)[C@H](CCC(=O)O)NC(=O)[C@@H](NC(=O)[C@H](Cc1ccccc1)NC(=O)[C@H](C)NC(=O)C(C)(C)NC(=O)[C@H](CCC(N)=O)NC(=O)[C@H](C)NC(=O)[C@H](CCCCNC(=O)COCCOCCNC(=O)COCCOCCNC(=O)CC[C@H](NC(=O)CCCCCCCCCCCCCCCCCCC(=O)O)C(=O)O)NC(=O)[C@H](CCCCN)NC(=O)[C@H](CC(=O)O)NC(=O)[C@H](CC(C)C)NC(=O)[C@H](CC(C)C)NC(=O)[C@@H](NC(=O)[C@H](CO)NC(=O)[C@H](C)NC(=O)[C@H](CC(=O)O)NC(=O)[C@H](CO)NC(=O)[C@@H](NC(=O)[C@H](Cc1ccccc1)NC(=O)[C@@H](NC(=O)CNC(=O)[C@H](CCC(=O)O)NC(=O)C(C)(C)NC(=O)[C@@H](N)Cc1ccc(O)cc1)[C@@H](C)O)[C@@H](C)O)[C@@H](C)CC)[C@@H](C)CC)C(=O)N[C@@H](CCC(=O)O)C(=O)N[C@@H](C)C(=O)NCC(=O)N1CCC[C@H]1C(=O)N[C@@H](CO)C(=O)N[C@@H](CO)C(=O)NCC(=O)N[C@@H](C)C(=O)N1CCC[C@H]1C(=O)N1CCC[C@H]1C(=O)N1CCC[C@H]1C(=O)N[C@@H](CO)C(N)=O) [Example 136]	0.0544	3.39	1.1	0.06
Y[Aib]EGT[αMeF]TSDYSIXLDKK([AEEA-AEEA-γGlu-C20 diacid])AQ[Aib]TFIEYLIEGGPSSGAPPPS-NH2 (not fully specified (residue 13); printed as Y-Aib-EGT-αMeF-TSDYSI-αMeF-LDKK((2-[2-(2-Amino-ethoxy)-ethoxy]-acetyl)2-(γ-Glu)-CO-(CH2)18-CO2H)AQ-Aib-TFIEYLIEGGPSSGAPPPS-NH2) [Example 139]	3.61	0.037	1.13	0.0417
Y[Aib]EGT[αMeF]TSDYSIXLDKKAQ[Aib]DFIEYLIEGGPSSGAPPPS-NH2 (not fully specified (residues 13, 17); printed as Y-Aib-EGT-αMeF-TSDYSI-αMeF-LDKK((2-[2-(2-Amino-ethoxy)-ethoxy]-acetyl)2-(γ-Glu)-CO-(CH2)18-CO2H)AQ-Aib-DFIEYLIEGGPSSGAPPPS-NH2) [Example 140]	3.76	0.0349	1.16	0.0424
Y[Aib]EGT[αMeF]TSDYSIXLDKKAQ[Aib]IFIEYLIEGGPSSGAPPPS-NH2 (not fully specified (residues 13, 17); printed as Y-Aib-EGT-αMeF-TSDYSI-αMeF-LDKK((2-[2-(2-Amino-ethoxy)-ethoxy]-acetyl)2-(γ-Glu)-CO-(CH2)18-CO2H)AQ-Aib-IFIEYLIEGGPSSGAPPPS-NH2) [Example 141]	0.538	0.2	0.414	0.0975
Y[Aib]EGT[αMeF]TSDYSIXLDKKAQ[Aib]HFIEYLIEGGPSSGAPPPS-NH2 (not fully specified (residues 13, 17); printed as Y-Aib-EGT-αMeF-TSDYSI-αMeF-LDKK((2-[2-(2-Amino-ethoxy)-ethoxy]-acetyl)2-(γ-Glu)-CO-(CH2)18-CO2H)AQ-Aib-HFIEYLIEGGPSSGAPPPS-NH2) [Example 142]	2.84	0.0489	1.22	0.0426
Y[Aib]EGT[αMeF]TSDYSIXLDKKAQ[Aib][Aib]FIEYLIEGGPSSGAPPPS-NH2 (not fully specified (residues 13, 17); printed as Y-Aib-EGT-αMeF-TSDYSI-αMeF-LDKK((2-[2-(2-Amino-ethoxy)-ethoxy]-acetyl)2-(γ-Glu)-CO-(CH2)18-CO2H)AQ-Aib-Aib-FIEYLIEGGPSSGAPPPS-NH2) [Example 143]	2.78	0.0515	0.714	0.0745
